From the supplement of paper PMC9170038

System: K4 kissing-loop RNA reporter
Experiment: apparent KD of K4 kissing-loop reporter; higher = weaker reporter binding
Settings: Eterna round: R107
Procedure: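 RNA-MaP round R107: designed RNA switches with theophylline, tryptophan, arginine or FMN aptamers are transcribed on-chip within common flanks. They are titrated with a labelled K4 kissing-loop RNA reporter in RNA-MaP buffer (100 mM Tris pH 7.5, 80 mM KCl, 4 mM MgCl2), without ligand or with the indicated ligand. Median apparent KD per design.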

[1] = input ligand: theophylline 20 uM
[2] = input ligand: tryptophan 2.4 mM
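Also: bound reporter read as fluorescence of individual clusters on recovered sequencing chips by microscopy, with normalized cluster intensities fitted with a binding model.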

Row | Sequence | apparent KD of K4 kissing-loop reporter (input ligand: FMN 200 uM) [nM] | apparent KD of K4 kissing-loop reporter (input ligand: arginine 13.2 mM) [nM] | apparent KD of K4 kissing-loop reporter (input ligand: none) [nM] | apparent KD of K4 kissing-loop reporter [1] [nM] | apparent KD of K4 kissing-loop reporter [2] [nM]
1 | AAACUUGCAGUGAUGUUGCAAGUAGGUGAUACCAGCAUCGAAAGAUGCCCUUGGCAGCACCAACACUGUAAGUAAGUAUCACCAA [(H1)-(H2)-(T1)-(T2)-(H)'-(T)'_Design2] | 110 | 120 | 117 | 139 | 105
2 | GCCGUAGAUUGAAGGAGCGCCGCACAUGUCCCGCUUAGUGUAGUGAUGUUACAGUGUCAGCGGCAGGUAGGUCGCAAUCUACGGC | 85.8 | 183 | 225 | 123 | 218
3 | UUUAAAUAUAGUGAUGUUAUAUAACAAUGACGAGGACCGGUACGGCCGCCACUCGAGAGAGAUAAUGGUCGUUCGAAUCGAACGC [AstrosSSTryA#6] | 599 | 779 | 672 | 574 | 410
4 | CGCAGUGAUGUUGCUAUUAUUCUUGAUUAACGAGGACCGGUACGGCCGCCACUCGGUUUCUAUCUGAUCCAGCGUUUUGUUGAGU [#23 K4 Tryptophan A Exclusion] | 474 | 562 | 638 | 620 | 335
5 | AGUGUGCAAAAGCACACUCAGUACAAGGACAAGGAUAUCUACUAAUAGAGAAGGUGUCCUUUCCUUAGUGAUGUUAAGGAGCUGA [Omei KL FMN A SS D v2] | 177 | 295 | 339 | 347 | 368
6 | AGAACUGUCUUGGAUACCAGUGAUGUUGGUAUCGAUGUGUGAGUGCAAAGCGUCCCAGAGUGCCCUUGGCAGCUAAGACUGUUCA [#16 K4 Theophylline B Exclusion] | 277 | 230 | 269 | 261 | 259
7 | UGUACCGAGUCAGGAUAUGUCGUCGAAAGACGAAAUGGAGUGAUGUUCCUUAAACUGCGAAAGCAGACAGAAGGGAUUUGGUACU [FmnBS 29 U77] | 207 | 654 | 739 | 738 | 717
8 | GUGAGGAUCAGAAGGAGCGUCGGCAAUCCAGUGAUGUUGGGUGUUGGUUAUAUUUAACGACGACAGGUAGGUCGCUGAUUUUCAA [Same State Arginie B GF 21] | 163 | 107 | 163 | 190 | 140
9 | CGCAUACCUGCGCUAGUAGUGAUGUUACAGCGAGGACCGGUACGGCCGCCACUCGUGACGGUCGCAAAACGCGUUGCAGAACACU [theeternabot_exclusion_KL_Trp_A_32] | 342 | 183 | 247 | 253 | 322
10 | AAUGUACAAGUGAUGUUUGUACUUUCCGAAGGAGCGUCUAAUAAGACAGGUAGGUCGCGGAUACUCUAAAUAAUCAGGUCAUUGA [#06 K4 Arginine A Exclusion] | 89.9 | 89 | 79.8 | 80.6 | 77.4
11 | UUAGUCUAGAGAAGGAGCGCAGUGAUGUUGCGGUAUGUGAAAAUAUGUAUAUAAUAAUAAAUGCAGGUAGGUCGCUCUAGACAUU [AK2 Exc Arginine B] | 68.4 | 89.7 | 64.9 | 85.7 | 54.3
12 | UCCUGCAAUCUGCCACGAAAGUGGGUUGAUACCAGAGUCGAAAGACUCCCUUGGCAGCGAGUGAUGUUCGUUGCAGGUGUUUAAA [MatMod 11 - Jieux - Exclusion - Theophylline A] | 197 | 172 | 186 | 217 | 174
13 | UCCACGCUUAGAGGAUAUCGGAUUAGAGUGAUGUUCUAAAGAAGCCCAGUGAUGUUGGAUGGUAUACGAGAAGGCUGUGGCGUGU [Same State FMN B GF 4] | 254 | 446 | 386 | 371 | 369
14 | AAGUGAUGUUGUAGUGAUGUUGUGAUGUUGCAGGAUAUAUAGUGAUGUAGAAGGGUAUGUGCAGUUUUUUUUUUUGAGUGUUGAU [dpdmullin] | 76.6 | 34.2 | 59.9 | 43.1 | 61
15 | UGUCAUUGGUCUGAUACCAGUACCCUUGGCAGCCAAGGAGUGAUGUUCCGAGGAUACCAGUGCCCUUGGCAGCAGACCGAUGACU [TheoBS 27 #DoubleAptamer #SwitchBubble] | 375 | 308 | 354 | 176 | 350
16 | UAUUAAGUGACGGCCGCCACUAUGGUGAUUUAUUUGUUUGAGUGAUGUUUUGAUGUUUGAUUUUGUAGGACCGGGUUAUGUGUUA [ttttcmullin] | 969 | 641 | 735 | 752 | 597
17 | AAAGAUCUUCUAGAAACUAGAAGAUCAAGAGAGGAUAUCCGAAUUCGGAGAAGGCUCACUAAGUGAUGUUUGGACCCAAAGGGAA [AK3 SS FMN A] | 1460 | 1520 | 1650 | 1600 | 1030
18 | UAAGAAUAAGUAGCAGUGAUGUUGCUACUGCGAGGACCGGUACGGCCGCCACUCGAGUCCUCGAAACAUCACUGAACGAGGAAUA [whbob_SS_Tryp_A_m11] | 298 | 190 | 193 | 319 | 270
19 | UGGAGUUGACGAAAAGUCAACUCCUGAGAUCGAGGACCGGUACGGCCGCCACUCGAGCUAACUGCGAGUGAUGUUCGAAAAUAAA [#OpenEnded 1 - Direct theophylline transfer] | 191 | 313 | 235 | 393 | 97.1
20 | UUCGUAGUAGGAAACUAUUACGAAAAGGAAGGAGCGGCGAAGAAGCCAGGUAGGUCGCCUAUUGACAGUGAUGUUGUUAUGUAGA [#9] | 172 | 341 | 241 | 360 | 142
21 | AUGGUAUUGCGAGGAUAUCCUUCAAACGUGACACUAACGGCAGUGAUGUUGCCGGCGUCGAUCAGAGGAGAAGGCGCGGUGUUAU [Exclusion FMN B GF 23] | 118 | 117 | 122 | 125 | 119
22 | UUUCGUUUCGUCUGACAUAAUUGGCUAGAAGGAGCGGUAAAAUUACCAGGUAGGUCGCUAGCCCAGUGAUGUUGGGACUAGCGUA [Edries] | 124 | 107 | 114 | 116 | 125

Row | Sequence | apparent KD of K4 kissing-loop reporter (input ligand: FMN 200 uM) [nM] | apparent KD of K4 kissing-loop reporter (input ligand: arginine 13.2 mM) [nM] | apparent KD of K4 kissing-loop reporter (input ligand: none) [nM] | apparent KD of K4 kissing-loop reporter [1] [nM] | apparent KD of K4 kissing-loop reporter [2] [nM]
23 | AACGUGGCCAAAGGAUAUCUCCCUACGUCGUUGCAUCUACCUCUGUUUGCUCUGAGUGAUGUUUGGAGAGAAGGUUGAGGCGAUU [theeternabot_exclusion_KL_FMN_B_29] | 532 | 317 | 442 | 513 | 387
24 | UGAUCAACAUCUGAUACCAGUCGCUCGAGUAAUCAACCGUGGCUAGUGAUGUUGGCUUUUGACCCUUGGCAGCAGAAUCGUGUCA [theeternabot_sameState_KL_Theo_B_20] | 134 | 131 | 112 | 189 | 120
25 | CGAGUCGGUUCAGAUACCAGCCAAUUAGAGUCGAGUGAUGUUCGACAAUGAACGUCCAAAGGCCCUUGGCAGCUGGAUUGGGAAC [Same State Theophylline B GF 20] | 157 | 61.1 | 104 | 112 | 171
26 | AGCGGCCAGUCGGCCGCCACUCCAAGCAGUGAUGUUGCUAAGUUUCUACAAGAGUGAUGUUCUUAGAGGACCGGGACUGAUGUGA [Exclusion Tryptophan B Gf 7] | 192 | 240 | 211 | 241 | 157
27 | GUUACGCAUGGAAGGAGCGCACUCCGAUUGGGCGACACAGUGAUGUUGUGGUUCGUUCGAAUGCAGGUAGGUCGCCAUGUGUAAC [Ex Arginine B K4 20] | 181 | 153 | 140 | 153 | 142
28 | UAGGAGUGAUGUUCCAUAUCUUGAGCCGAAGGAGCGCCUUUCUAGGCAGGUAGGUCGCGGCAGAAGGUACCAGUGAUGUUGGAAA [Same State Arginine A GF7] | 163 | 171 | 208 | 184 | 145
29 | UGGUUCAAUACGGCCGCCACUGGUGAGUGAUGUUUACCGUCUAUAUCAUGUGUCGAGAGCGCUAUCAGGACCGGGUAGGGACCGU [theeternabot_exclusion_KL_Trp_B_42] | 673 | 396 | 721 | 837 | 458
30 | UGAUAGGACAGAAGGAGCGGUAGUGAUGUUACCAAAAGUAUAAGGUGUCAAAAGACACCCUGCCAGGUAGGUCGCUGUCCUAUCU | 157 | 210 | 178 | 198 | 152
31 | AAGCAGUCACUCGCAGCCAUCGAAGAUGGGCGAGGACCGGUACGGCCGCCACUCGGAGUGAUGUUCCGCAGACUGCAAAAUAAAA | 536 | 343 | 350 | 437 | 428
32 | AUGUCUUAUAAACUCGUGGUUUCGAUCGAUACCAGUAGCGAGAGUUACCCUUGGCAGCGACAUGAGUGAUGUUCAUGUACGAAGA [KL-XTheoA4] | 96.1 | 89 | 94.3 | 90.2 | 92.9
33 | UUAUUAAUCACAGAUACCAGUCCAGAAUGAAUACUAUAGUGAUGUUAUAAUAAAGGGAAGGACCCUUGGCAGCUGUAAUAUAUUU [AstrosSsTheB#2] | 525 | 370 | 499 | 354 | 320
34 | UGAUUUAACUGAAGGAGCGGCAAUUGAGAAGGAAAUAUAGUGAUGUUAUAUAAGAGAGAGAGCCAGGUAGGUCGCAGAGGGAGGA [ExArgB.G] | 185 | 131 | 152 | 198 | 118
35 | CGUUUAUAGCAGGAUACCAGUACCCAUUAUGUACGUUAAUAGUAGAGUGAUGUUCUAAAGUACCCUUGGCAGCUUCCCGUGACCC [ExTheophylB.Y] | 119 | 183 | 140 | 176 | 94.7
36 | CUCUAGGCGCUCGCGUGAGUGAUGUUUACGCGAGGACCGGUACGGCCGCCACUCGCAGACUGGGUGUAAGCGGAGCUGUAUGCCC [theeternabot_exclusion_KL_Trp_A_12] | 277 | 158 | 212 | 174 | 223
37 | UCGCGUAAUGGAAGGAGCGGUGCCAGUGAUGUUGGAUACUGCGUGUAUUAGGUCGGAGCGCACCAGGUAGGUCGCCAUUUGGUGG [Tigedies] | 328 | 276 | 236 | 271 | 369
38 | UUUAUAUAGUCGGCCGCCACUGAUUUUUUUAUAUGUUUAUGUUUAUACGAGUGAUGUUCGAUAUACAGGACCGGGACUUUGGUUA [JR_SSTryptoB_Sub019] | 145 | 207 | 159 | 224 | 115
39 | UGAUAGGACAGAAGGAGCGGAGCUGGUCAAAGACCAGCAAUAACGUUGAAAGGAGUGAUGUUCCAGGUAGGUCGCUGUCCUAUCU [ArgBX 26 #SwitchBubble #StaticStem] | 121 | 130 | 120 | 163 | 93.7
40 | GCGGGCCAGACGGCCGCCACUCCGGGCAGUGAUGUUGCGAAUCUUCUACUAGAGUGAUGUUCUACGAGGACCGGGUCGGAACGCG [Exclusion Tryptophan B Gf 14] | 458 | 384 | 569 | 502 | 289
41 | GUUACGCAUGGAAGGAGCGCAGGCUCAACAAAUAGCUCAGUGAUGUUGAGCAAAUUAAAACUGCAGGUAGGUCGCCAUGUGUAAC [Ex Arginine B K4 22] | 399 | 399 | 508 | 371 | 422
42 | AACCUUGUAGUGAUGUUGCAAGGCGCUGAUACCAGUCACAGCCACGACCCUUGGCAGCAGUGGCGUUCAUGAUAAAAUAGAUUAA [theeternabot_sameState_KL_Theo_A_49] | 42 | 41.5 | 41.4 | 37 | 39.9
43 | AGAUUCGACACGGCCGCCACUUCCAGUGGUCGGUGUCAUGGUGCACAUGAGUGAUGUUCAUGUGGAAGGACCGGGUGUUGAGUCU [KL-XTryp-B3 #analogue] | 111 | 91.4 | 103 | 108 | 165
